In assay [1] the test system is atherosclerotic plaque tissues. The assay is described as follows: In vivo atherosclerotic targeting of fluorescent dye-conjugated peptide (fluorescence microscopy of frozen sections). The settings on record: atherosclerosis-induced mice, circulation 15 min. From the text:
C57BL/6 mice (Ldlr−/−) into which deficiency of a low-density lipoprotein (LDL) receptor was introduced by a genetic engineering technique were fed daily for 10 weeks with 3 g of high-cholesterol diet, thereby inducing atherosclerosis in animals. The high-cholesterol diet was a special animal feed containing 1.25% cholesterol, 15% fat and 0.5% cholate (Oriental Yeast Co., Japan).
Here, the peptide was synthesized by tagging an N-terminus of the peptide with FITC (fluorescein isothiocyanate) as a green fluorescent dye. The synthesized FITC-CRKRLDRNC peptide and a control peptide (FITC-NSSVDK) at final blood concentrations of 50 μM were injected into the atherosclerosis-induced mice via the left ventricle of animals, followed by circulation for 15 min. Thereafter, the aortae were removed from each mouse, and frozen sections were prepared, followed by Oil Red O (fat marker, Sigma-Aldrich, USA) staining or vWF (vascular endothelial cell marker, 1:5000 dilution, Abcam, USA) and Mac-3 (macrophage marker, 1:50 dilution, BD, USA) staining (Matter et al., Circulation Research, 95:1225-1233, 2004). In order to stain nuclei in tissues, a mounting medium containing a nuclear staining dye, 4′,6-diamidino-2-phenylindole (DAPI) (manufactured by Molecular Probe, USA) was treated on a slide, according to a conventional method known in the art, followed by fluorescence microscopic examination.

Assay [2] deals with T1, IL-4R (Mus musculus, UniProt P16382).
T1 construct: from tissue; host or cells: aorta / atherosclerotic plaque of Ldlr-/- mice
T1 sequence (P16382 26-810): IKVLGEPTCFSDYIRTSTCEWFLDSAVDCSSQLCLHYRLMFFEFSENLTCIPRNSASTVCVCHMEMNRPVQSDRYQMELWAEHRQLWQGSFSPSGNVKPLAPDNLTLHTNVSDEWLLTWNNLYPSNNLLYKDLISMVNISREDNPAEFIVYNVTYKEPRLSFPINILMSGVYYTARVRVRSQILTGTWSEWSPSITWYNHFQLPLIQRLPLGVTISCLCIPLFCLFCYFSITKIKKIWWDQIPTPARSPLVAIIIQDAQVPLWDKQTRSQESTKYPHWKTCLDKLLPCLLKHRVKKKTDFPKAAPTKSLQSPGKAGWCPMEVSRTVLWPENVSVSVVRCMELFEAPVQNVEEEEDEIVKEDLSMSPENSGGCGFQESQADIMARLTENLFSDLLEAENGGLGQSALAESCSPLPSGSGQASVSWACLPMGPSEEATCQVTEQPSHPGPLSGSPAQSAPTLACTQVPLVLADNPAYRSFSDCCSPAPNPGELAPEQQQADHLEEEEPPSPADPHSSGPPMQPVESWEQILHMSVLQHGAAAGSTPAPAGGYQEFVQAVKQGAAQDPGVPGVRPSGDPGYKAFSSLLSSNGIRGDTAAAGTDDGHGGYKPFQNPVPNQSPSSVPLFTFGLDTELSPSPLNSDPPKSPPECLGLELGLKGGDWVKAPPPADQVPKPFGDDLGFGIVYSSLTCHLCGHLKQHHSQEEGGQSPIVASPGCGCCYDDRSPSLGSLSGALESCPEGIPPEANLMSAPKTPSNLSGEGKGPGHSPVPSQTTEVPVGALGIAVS
The assay can be described thus: Histological distribution of peptide and IL-4R in atherosclerotic plaque tissues. The class given is in vivo, mice. The settings on record: 50 μM final concentration in blood, circulation 15 min; IL-4R antibody staining. As to the method: In order to ascertain a receptor that binds to the peptide of the present invention, binding of the peptide was examined for various receptors. Out of those receptors, the results for IL-4R are as follows. First, fluorescein (FITC)-conjugated peptide of the present invention at a final concentration of 50 μM was injected into the blood of experimental animals, followed by circulation for 15 min. Thereafter, the aortae were removed from animals, and a frozen section slide was prepared. Then, the tissue section was stained by reaction of the section with antibodies (1:200 dilution, BD, USA) directed against IL-4R, at room temperature for 1 hour. In order to stain the tissue nuclei, DAPI was treated on the slide which was then examined under a fluorescence microscope (Joshi et al., Cancer Research, 61:8058-8061, 2001).

For assay [3], the target named is T2, IL-4R (Homo sapiens, UniProt P24394).
T2 sequence (P24394 26-825): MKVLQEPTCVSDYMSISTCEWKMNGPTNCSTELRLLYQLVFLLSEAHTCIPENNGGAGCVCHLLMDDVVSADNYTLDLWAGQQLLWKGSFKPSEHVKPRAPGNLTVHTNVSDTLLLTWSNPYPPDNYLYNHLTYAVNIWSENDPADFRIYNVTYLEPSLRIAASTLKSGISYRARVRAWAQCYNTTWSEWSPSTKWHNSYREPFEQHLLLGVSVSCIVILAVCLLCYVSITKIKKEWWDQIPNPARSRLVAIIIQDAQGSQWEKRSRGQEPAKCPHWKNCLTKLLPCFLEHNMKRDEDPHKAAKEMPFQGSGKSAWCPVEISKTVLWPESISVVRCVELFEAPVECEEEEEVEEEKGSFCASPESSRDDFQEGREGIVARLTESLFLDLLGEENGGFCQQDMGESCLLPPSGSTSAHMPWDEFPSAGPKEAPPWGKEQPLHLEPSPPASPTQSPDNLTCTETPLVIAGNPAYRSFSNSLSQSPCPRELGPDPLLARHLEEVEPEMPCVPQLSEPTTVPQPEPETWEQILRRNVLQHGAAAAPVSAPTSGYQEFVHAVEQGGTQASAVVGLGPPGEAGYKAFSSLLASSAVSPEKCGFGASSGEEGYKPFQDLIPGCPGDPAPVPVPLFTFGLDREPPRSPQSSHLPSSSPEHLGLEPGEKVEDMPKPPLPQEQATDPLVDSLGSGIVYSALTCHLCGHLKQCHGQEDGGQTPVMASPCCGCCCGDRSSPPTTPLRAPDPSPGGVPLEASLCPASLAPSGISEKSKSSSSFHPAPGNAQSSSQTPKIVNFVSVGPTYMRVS
The assay can be described thus: Bindability of peptide to IL-4R-expressing CHO-K1 cells (fluorescence microscopy). The class given is binding. The settings on record: 10 μM peptide, room temperature, 1 hour. The text has this:
In order to further confirm roles of IL-4R as the receptor for the peptide of the present invention, a plasmid capable of expressing IL-4R (Cat. #TC119877, Origene, USA) was introduced into IL-4R-deficient CHO-K1 cells according to a conventional method known in the art, followed by expression of IL-4R, and binding of IL-4R with the peptide of the present invention was examined.
The cells were stained with antibodies (1:200 dilution) directed against. IL-4R and cell nuclei were stained with DAPI, followed by fluorescence microscopic examination. As a result, a large amount of IL-4R (red fluorescence) was present on the cell surface (FIG. 6B). Next, CHO-K1 and CHO-K1/IL-4R cells were reacted with 10 μM of the FITC-C-RKRLDRNC peptide at room temperature for 1 hour.

Assay [4] deals with T2, IL-4R. The assay can be described thus: Bindability of peptide to HT-1376 cells with inhibited expression of IL-4R (siRNA). Format: binding. More on the design: HT-1376 cells that essentially show constitutive expression of IL-4R; endogenous in cells; host or cells: HT-1376. As to the method: Silencing RNA for IL-4R (Cat. #16708A, Ambion, USA) was introduced into HT-1376 cells that essentially show constitutive expression of IL-4R, according to a conventional method known in the art, and treated for 24 hours to thereby result in substantially no expression of IL-4R, followed by evaluation of peptide binding. More specifically, 10 nM of IL-4R silencing RNA synthesized by the manufacturer was mixed with a siPORT™ NeoFX™ lipid transfection agent (Ambion, USA), and the mixture was treated for 24 hours on HT-1376 cells grown in a 4-well chamber slide, such that IL-4R silencing RNA is incorporated into the cells. Thereafter, the culture medium was replaced with one containing 10% bovine serum and the cells were recovered for 24 hours. After staining of cells with IL-4R antibodies and nuclear DAPI staining under the same conditions as in FIG. 6, a cellular expression level of IL-4R was examined. After IL-4R staining, the FITC-CRKRLDRNC peptide was reacted with the cells under the same conditions as in FIG. 6, and a binding degree of the peptide was measured.

Ends that are not written are not given here. * marks the point of attachment. FITC = O=C1OC2(c3ccc(O)cc3Oc3cc(O)ccc32)c2ccc(NC(=S)*)cc21

Take “FITC-CRKRLDRNC ({FITC}-CRKRLDRNC; cysteine pairing not given here) [FITC-CRKRLDRNC peptide, called the peptide of the present invention in b132]”: in assay [1] (50 μM), the “peptide detection in cerebral tissues” value was “not detected” and the “peptide detection in pulmonary tissues” value is on record as “not detected”. Further, the “peptide found in aortic atherosclerotic plaque tissues (green fluorescence)” value in assay [1] (final blood concentration 50 μM via left ventricle) is recorded as “more targeted in plaque tissues”. The “position of peptide (green fluorescence) relative to IL-4R (red fluorescence) in atherosclerotic plaque tissues” value with IL-4R [2] is listed as “almost identically positioned”. Also, in the assay with IL-4R [3], the “binding to CHO-K1/IL-4R cells (IL-4R-expressing)” value is “green fluorescence due to the peptide” and the “binding to IL-4R-deficient CHO-K1 cells” value is given as “no fluorescence arising from the peptide”. Further, in the assay with IL-4R [4] (same conditions as in FIG. 6), the “binding to HT-1376/siIL-4R cells (IL-4R silencing RNA-treated)” value was “substantially no binding” and the “binding to mock silencing RNA-treated HT-1376 cells” value is listed as “good bindability”. In addition, the “binding to HT-1376 cells (constitutive expression of IL-4R)” value with IL-4R [4] (same conditions as in FIG. 6 (10 μM, room temperature, 1 hour)) is on record as “active binding”.
